According to the supplement of paper PMC7877785:
± gives the uncertainty stated by the source.

Assay: self-splicing fitness, log relative to wild type (ln ratio); higher = more splicing; Tetrahymena group I intron in knt gene, E. coli kanamycin selection, DiMSum; sequences stand for … in CUCUCU…GGAGGGAAAAGUUAUCAGGCAUGCACCUGGUAGCUAGUCUUUAAACCAAUAGAUUGCAUCGGUUUAAAAGGCAAGACCGUCAAAUUGCGGGAAAGGGGUCAACAGCCGUUCAGUACCAAGUCUCAGGGGAAACUUUGAGAUGGCCUUGCAAAGGGUAUGGUAAUAAGCUGACGGACAUGGUCCUAACCACGCAGCCAAGUCCUAAGUCAACAGAUCUUCUGUUGAUAUGGAUGCAGUUCACAGACUAAAUGUCGGUCGGGGAAGAUGUAUUCUUCUCAUAAGAUAUAGUCGGACCUCUCCUUAAUGGGAGCUAGCGGAUGAAGUGAUGCAACACUGGAGCCGCUGGGAACUAAUUUGUAUGCGAAAGUAUAUUGAUUAGUUUUGGAGUACUCGUGGUCG
Summary of the method: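 Six replicate transformations of E. coli BL21(DE3) with a pET-22b(+) library were grown overnight at 37°C or 30°C. The library randomised all eight P1ex-region intron nucleotides, the intron lying in the knt kanamycin-resistance gene, and plates were LB agar with or without 25 μg/mL kanamycin plus 100 μg/mL carbenicillin, 50 μM IPTG and 0.2% rhamnose. Pooled colonies were amplicon-sequenced on an Illumina HiSeq 2500, and fitness is the DiMSum error-weighted combination of wild-type-normalised replicate fold changes, kanamycin versus none.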

Sequence | self-splicing fitness (ln) (30 °C) | self-splicing fitness (ln) (37 °C)
CCAGAGCAAUAUUACGAUGG | -4.18 ± 0.34 | -2.04 ± 0.27
UAGAAGCAAUAUUACGCAGA | -3.4 ± 0.34 | -1.79 ± 0.18
GCCCAGCAAUAUUACGCGGC | -4.94 ± 0.39 | -2.51 ± 0.24
CAAUAGCAAUAUUACGUUGU | -3.27 ± 0.14 | -2.12 ± 0.17
CGGCAGCAAUAUUACGCGAA | -2.67 ± 0.13 | -1.68 ± 0.15
GGGAAGCAAUAUUACGGUUA | -1.27 ± 0.11 | -0.726 ± 0.1
UGGGAGCAAUAUUACGCGUC | -0.5 ± 0.36 | –
CUUCAGCAAUAUUACGCAGC | -2.04 ± 0.22 | -1.5 ± 0.32
CGAAAGCAAUAUUACGAACC | -0.666 ± 0.14 | -0.796 ± 0.16
GAACAGCAAUAUUACGCUGC | – | -1.69 ± 0.26
UACUAGCAAUAUUACGUAGG | -4.09 ± 0.35 | -1.69 ± 0.22
CGCUAGCAAUAUUACGGGUC | -3.08 ± 0.21 | -2.9 ± 0.34
CCUGAGCAAUAUUACGGUAC | -4.34 ± 0.34 | –
GCGGAGCAAUAUUACGUGUU | -2.9 ± 0.31 | -1.47 ± 0.18
ACACAGCAAUAUUACGAUCU | -0.658 ± 0.053 | 0.14 ± 0.082
AGACAGCAAUAUUACGUCAA | -1.68 ± 0.1 | -1.35 ± 0.09
AUCAAGCAAUAUUACGUGCC | -1.51 ± 0.14 | -0.426 ± 0.16
CUAGAGCAAUAUUACGGCGA | -3.28 ± 0.32 | –
GUUCAGCAAUAUUACGGUAA | -1.21 ± 0.07 | -0.563 ± 0.07
CGUGAGCAAUAUUACGCUCA | -2.84 ± 0.31 | –
UAUGAGCAAUAUUACGAUUC | – | -1.6 ± 0.45
AGUAAGCAAUAUUACGCUAU | -4.08 ± 0.32 | -1.41 ± 0.13
GGGCAGCAAUAUUACGUAUG | -3.15 ± 0.23 | -1.44 ± 0.22
UUCAAGCAAUAUUACGGAUG | -2.34 ± 0.14 | -1.7 ± 0.14
CGGGAGCAAUAUUACGAAAG | -2.47 ± 0.42 | -2.55 ± 0.42

Sequence | self-splicing fitness (ln) (30 °C) | self-splicing fitness (ln) (37 °C)
ACUGAGCAAUAUUACGCCCA | -2.64 ± 0.43 | -2.15 ± 0.28
CGGUAGCAAUAUUACGACCG | -2.88 ± 0.36 | -2.07 ± 0.42
GCUUAGCAAUAUUACGGGCA | -2.24 ± 0.27 | -0.778 ± 0.19
GUCCAGCAAUAUUACGGACA | -2.84 ± 0.26 | -1.67 ± 0.18
CGCUAGCAAUAUUACGCUAG | -2.63 ± 0.22 | -2.16 ± 0.27
AGACAGCAAUAUUACGGUUU | -3.25 ± 0.11 | -1.32 ± 0.082
CCGCAGCAAUAUUACGUACU | -4.17 ± 0.33 | -3.33 ± 0.4
AUUCAGCAAUAUUACGUUGU | -3.14 ± 0.15 | -2.3 ± 0.21
CAUUAGCAAUAUUACGUCAU | -4.39 ± 0.3 | -2.48 ± 0.21
AGCCAGCAAUAUUACGAGGA | -3.35 ± 0.34 | -2.17 ± 0.27
CAACAGCAAUAUUACGUUAG | -2.13 ± 0.076 | -1.52 ± 0.089
UUUCAGCAAUAUUACGUCGG | -1.51 ± 0.1 | -1.17 ± 0.14
CGAUAGCAAUAUUACGAUCC | -0.714 ± 0.13 | 0.104 ± 0.19
UUGCAGCAAUAUUACGCAGC | -2.41 ± 0.41 | -1.83 ± 0.3
CUGGAGCAAUAUUACGUCUG | 0.206 ± 0.068 | 0.0818 ± 0.099
CCUGAGCAAUAUUACGUUGU | -3.57 ± 0.2 | -2.73 ± 0.23
AUCAAGCAAUAUUACGGAAG | -2.78 ± 0.11 | -2.01 ± 0.12
UUUCAGCAAUAUUACGGGUU | -3.19 ± 0.24 | -2.13 ± 0.18
GCCCAGCAAUAUUACGACCA | -1.44 ± 0.19 | -0.385 ± 0.23
AGACAGCAAUAUUACGGAGC | -3.94 ± 0.17 | -2.93 ± 0.24
AACCAGCAAUAUUACGUCCA | -0.505 ± 0.061 | -0.595 ± 0.068
GCAAAGCAAUAUUACGACGA | -0.0819 ± 0.088 | -0.213 ± 0.1
ACCUAGCAAUAUUACGCUGU | -1.54 ± 0.071 | -0.737 ± 0.078
UAAUAGCAAUAUUACGUGCU | -1.98 ± 0.1 | -0.994 ± 0.1
GCACAGCAAUAUUACGCUGG | -3.29 ± 0.18 | -1.92 ± 0.15

Sequence | self-splicing fitness (ln) (30 °C) | self-splicing fitness (ln) (37 °C)
UAGGAGCAAUAUUACGCGGA | -3.57 ± 0.38 | -2.52 ± 0.26
GUGCAGCAAUAUUACGAACU | -1.16 ± 0.11 | 0.161 ± 0.12
GGAGAGCAAUAUUACGUGGA | – | -3.26 ± 0.32
CCGGAGCAAUAUUACGAAGG | -2.63 ± 0.14 | -2.28 ± 0.22
GAAUAGCAAUAUUACGUAAG | -2.32 ± 0.14 | -0.886 ± 0.18
AACUAGCAAUAUUACGCAAU | -2.35 ± 0.13 | -2.15 ± 0.16
GUUAAGCAAUAUUACGGAGC | -3.58 ± 0.33 | -2.55 ± 0.27
AGUCAGCAAUAUUACGAUUA | 0.011 ± 0.11 | -0.381 ± 0.15
CCCGAGCAAUAUUACGUAGA | -3.94 ± 0.3 | -2.92 ± 0.24
UGUUAGCAAUAUUACGUGGG | -3.19 ± 0.27 | -2.89 ± 0.27
AGAAAGCAAUAUUACGCCGG | -1.43 ± 0.25 | -1.62 ± 0.24
AUCUAGCAAUAUUACGGGUA | -1.97 ± 0.15 | -1.49 ± 0.12
UCUAAGCAAUAUUACGGGAU | -2.77 ± 0.14 | -2.67 ± 0.18
UGCUAGCAAUAUUACGUGCG | -1.94 ± 0.1 | -1.7 ± 0.12
CUCAAGCAAUAUUACGCAAG | – | -0.876 ± 0.27
CGGGAGCAAUAUUACGACAU | -4.013 ± 0.038 | -2.67 ± 0.046
UACGAGCAAUAUUACGCAAG | -2.57 ± 0.15 | -2.03 ± 0.35
GACGAGCAAUAUUACGCGAA | -2.91 ± 0.31 | -1.16 ± 0.21
ACUCAGCAAUAUUACGAAGG | -0.983 ± 0.1 | -1.19 ± 0.14
UCAAAGCAAUAUUACGUGUU | -3.06 ± 0.1 | -2.8 ± 0.14
GAAAAGCAAUAUUACGUUCA | -0.878 ± 0.086 | -0.773 ± 0.082
UCUGAGCAAUAUUACGGGAA | – | -1.82 ± 0.33
GCUGAGCAAUAUUACGUGAU | -1.02 ± 0.1 | -1.13 ± 0.14
AAUGAGCAAUAUUACGCUUU | -3.41 ± 0.23 | -2.34 ± 0.31
GGACAGCAAUAUUACGAAUA | -1.69 ± 0.13 | -0.937 ± 0.13

Sequence | self-splicing fitness (ln) (30 °C) | self-splicing fitness (ln) (37 °C)
GAUCAGCAAUAUUACGUGGA | -2.82 ± 0.26 | -1.22 ± 0.13
AUUCAGCAAUAUUACGUAGG | -1.64 ± 0.13 | -0.941 ± 0.17
CUUCAGCAAUAUUACGGGUU | -4.12 ± 0.24 | -2.49 ± 0.23
UAUCAGCAAUAUUACGAAUC | -3.49 ± 0.26 | -0.458 ± 0.14
CAAUAGCAAUAUUACGAUCU | -3.45 ± 0.22 | -1.91 ± 0.21
UUGAAGCAAUAUUACGAGAA | -1.9 ± 0.17 | -1.7 ± 0.18
CUGCAGCAAUAUUACGGCAU | -0.953 ± 0.057 | -0.378 ± 0.071
ACUGAGCAAUAUUACGACGC | 0.0713 ± 0.15 | 0.648 ± 0.2
UCGAAGCAAUAUUACGGGGA | -1.17 ± 0.13 | -0.644 ± 0.13
UGUGAGCAAUAUUACGUAUG | -1.22 ± 0.1 | -1.26 ± 0.12
ACAAAGCAAUAUUACGUGAU | -1.51 ± 0.063 | -1.09 ± 0.086
CGGAAGCAAUAUUACGCCAC | -3.64 ± 0.18 | -2.78 ± 0.26
GGAAAGCAAUAUUACGGUAA | -1.62 ± 0.15 | -0.544 ± 0.12
CAGAAGCAAUAUUACGCCCA | -1.97 ± 0.15 | -0.986 ± 0.16
CUAUAGCAAUAUUACGUUGA | -3.67 ± 0.32 | -3.42 ± 0.35
ACACAGCAAUAUUACGUACG | -1.19 ± 0.067 | -0.925 ± 0.081
AGAGAGCAAUAUUACGCGCU | -1.89 ± 0.35 | –
AACGAGCAAUAUUACGUCGA | – | -2.06 ± 0.21
GCUCAGCAAUAUUACGUUAC | -1.56 ± 0.12 | -1.65 ± 0.14
UCGUAGCAAUAUUACGUUUG | -3.19 ± 0.18 | -1.56 ± 0.2
GUCUAGCAAUAUUACGCCCG | -0.678 ± 0.27 | -0.293 ± 0.34
AUUAAGCAAUAUUACGAGUU | -2.42 ± 0.17 | -1.27 ± 0.22
UCUCAGCAAUAUUACGAAUA | -2.57 ± 0.21 | -0.0366 ± 0.13
UCUAAGCAAUAUUACGGUCC | – | -0.662 ± 0.27
